Data reported in PMC5700975.

B1: GST-Rab5 wild-type [canine] / Myc3-iSH2-p110β (wild type) [bovine | human] (parent)
chain 1: LYEDYTRTSQEIQMKRTAIEAFNETIKIFEEQCQTQERYSKEYIEKFKREGNETEIQRIMHNYEKLKSRISEIVDSRRRLEEDLKKQAAEYREIDKRMNSIKGGGGGGGMCFSFIMPPAMADILDIWAVDSQIASDGSIPVDFLLPTGIYIQLEVPREATISYIKQMLWKQVHNYPMFNLLMDIDSYMFACVNQTAVYEELEDETRRLCDVRPFLPVLKLVTRSCDPGEKLDSKIGVLIGKGLHEFDSLKDPEVNEFRRKMRKFSEEKILSLVGLSWMDWLKQTYPPEHEPSIPENLEDKLYGGKLIVAVHFENCQDVFSFQVSPNMNPIKVNELAIQKRLTIHGKEDEVSPYDYVLQVSGRVEYVFGDHPLIQFQYIRNCVMNRALPHFILVECCKIKKMYEQEMIAIEAAINRNSSNLPLPLPPKKTRIISHVWENNNPFQIVLVKGNKLNTEETVKVHVRAGLFHGTELLCKTIVSSEVSGKNDHIWNEPLEFDINICDLPRMARLCFAVYAVLDKVKTKKSTKTINPSKYQTIRKAGKVHYPVAWVNTMVFDFKGQLRTGDIILHSWSSFPDELEEMLNPMGTVQTNPYTENATALHVKFPENKKQPYYYPPFDKIIEKAAEIASSDSANVSSRGGKKFLPVLKEILDRDPLSQLCENEMDLIWTLRQDCREIFPQSLPKLLLSIKWNKLEDVAQLQALLQIWPKLPPREALELLDFNYPDQYVREYAVGCLRQMSDEELSQYLLQLVQVLKYEPFLDCALSRFLLERALGNRRIGQFLFWHLRSEVHIPAVSVQFGVILEAYCRGSVGHMKVLSKQVEALNKLKTLNSLIKLNAVKLNRAKGKEAMHTCLKQSAYREALSDLQSPLNPCVILSELYVEKCKYMDSKMKPLWLVYNNKVFGEDSVGVIFKNGDDLRQDMLTLQMLRLMDLLWKEAGLDLRMLPYGCLATGDRSGLIEVVSTSETIADIQLNSSNVAAAAAFNKDALLNWLKEYNSGDDLDRAIEEFTLSCAGYCVASYVLGIGDRHSDNIMVKKTGQLFHIDFGHILGNFKSKFGIKRERVPFILTYDFIHVIQQGKTGNTEKFGRFRQCCEDAYLILRRHGNLFITLFALMLTAGLPELTSVKDIQYLKDSLALGKSEEEALKQFKQKFDEALRESWTTKVNWMAHTVRKDYRS
chain 2: ANRGATRPNGPNTGNKICQFKLVLLGESAVGKSSLVLRFVKGQFHEFQESTIGAAFLTQTVCLDDTTVKFEIWDTAGQERYHSLAPMYYRGAQAAIVVYDITNEESFARAKNWVKELQRQASPNIVIALSGNKADLANKRAVDFQEAQSYADDNSLLFMETSAKTSMNVNEIFMAIAKKLPKNEPQNPGANSARGRGVDLTEPTQPTRSQCCSN

Variants of: B1
Assay: GST pull-down (summary table)
Conditions: with Myc3-iSH2-p110β (wild type) [bovine | human]; n=4; parent: 100

percent of parent [% binding]	Variant
< 25	chain 2 I52A
< 25	chain 2 R90E

Same assay, conditions: with Myc3-iSH2-p110β (wild type) [bovine | human]; n=5; parent: 100

percent of parent [% binding]	Variant
< 25	chain 2 M87A
< 25	chain 2 W73A
< 25	chain 2 F56A

Same assay, conditions: with Myc3-iSH2-p110β (wild type) [bovine | human]; n=6; parent: 100

percent of parent [% binding]	Variant
< 25	chain 2 Y81A

Same assay, conditions: with Myc3-iSH2-p110β (wild type) [bovine | human]; n=7; parent: 100

percent of parent [% binding]	Variant
< 25	chain 2 Y88A
< 25	chain 2 Q78L

Variants of: B1
Assay: GST pull-down, anti-Myc immunoblot quantification
Conditions: with Myc3-iSH2-p110β (wild type) [bovine | human]; GST-Rab5 fusion proteins (10 µg) on glutathione Sepharose beads, GppCp-loaded; Myc-iSH2-p110β from transfected COS-1 lysates; parent: 100; read off a plot

percent of parent [% WT]	Variant
20	chain 2 Q78L

Variants of: B1
Assay: GST pull-down (summary table)
Conditions: with Myc3-iSH2-p110β (wild type) [bovine | human]; n=8; parent: 100

percent of parent [% binding]	Variant
< 25	chain 2 R80E

Same assay, conditions: with Myc3-iSH2-p110β (wild type) [bovine | human]; n=9; parent: 100

percent of parent [% binding]	Variant
< 25	chain 2 E79R
< 25	chain 2 H82E

Same assay, conditions: with Myc3-iSH2-p110β (wild type) [bovine | human]; n=10; parent: 100

percent of parent [% binding]	Variant
< 25	chain 2 L84A
